Data published in patent US8013125B2, “Metalloproteinase 9 and metalloproteinase 2 binding proteins” (Dyax Corp., priority 2008, dated 2011).
“Also recorded” adds a separate entry of the source. Blank lines part the entries; values can stand above or below the molecule they belong to.

Experiments:
human pro-MMP-9 = molecular target: T1, human pro-MMP-9 (Homo sapiens, UniProt P14780); test: Biacore binding of analyte to coated antibody; conditions: Direct capture, 25° C.
T1 construct: the human pro-MMP-9 (R&D, 911-MP); purchased R&D 911-MP
Protocol: (§1) The non competitive inhibition model implies that the ternary complex enzyme-substrate-inhibitor can form. It is however possible that this complex cannot form with bigger substrates, in which case the antibody would behave as a competitive inhibitor. In order to address this issue, the ability of M0237-D02 antibody to bind to the h-MMP-9 when the enzyme is complexed to its natural inhibitor h-TIMP-1 was determined. The reasoning is that if the antibody cannot bind to the h-MMP-9/h-TIMP-1 complex, it would probably behave as a competitive inhibitor of this enzyme in the presence of bigger substrates.
(§2) Experiments were performed at 25° C. with the help of a Biacore 3000 instrument. The MMP-9 binding protein (M0166F10) and the M0237-D02 antibody were coated to a CM5 chip either via standard amine coupling or using an anti-Fc antibody surface. Then either the active, human MMP-9 catalytic domain (BIOMOL, SE-244), the human pro-MMP-9 (R&D, 911-MP), the human TIMP-1 (R&D, 970-TM) or a h-MMP-9/h-TIMP-1 complex were flowed over the antibody surfaces, and binding was recorded.

[1] = molecular target: T2, Human MMP-9 catalytic domain (Homo sapiens, UniProt P14780); test: Biacore binding of analyte to coated antibody; conditions: 25° C.
T2 construct: Human MMP-9 catalytic domain (BIOMOL, SE-244); purchased BIOMOL SE-244
Protocol: as §1, §2

human TIMP-1 = molecular target: T3, human TIMP-1 (Homo sapiens, UniProt P01033); test: Biacore binding of analyte to coated antibody; conditions: Direct capture; 25° C.
T3 construct: purchased R&D 970-TM
Protocol: as §1, §2

h-MMP-9/h-TIMP-1 complex = h-MMP-9/h-TIMP-1 complex (Homo sapiens, UniProt P14780); test: Biacore binding of analyte to coated antibody; conditions: 25° C.
Protocol: as §1, §2

[2] = molecular target: T2, Human MMP-9 catalytic domain; test: Inhibition progress curves and kinetic analysis; type: biochemical; conditions: 25° C.; for kobs: substrate 9 μM
Protocol: The kinetics of the interaction between M0237-D02 and the human MMP-9 were determined. The rates were determined using the following equation: […]
The second order rate constant for the association of the enzyme E and the inhibitor I (kon) and the first order rate constant for the dissociation of the complex El (koff) can be calculated from inhibition progress curves obtained at different inhibitor concentrations.
Materials: • Substrate: Mca -KPLGL-Dap(Dnp)-AR-NH2(SEQ ID NO: 1279) (M-2350) from BACHEM (521575). A 10mM stock solution was prepared in DMSO. • Human MMP-9 catalytic domain (BIOMOL, SE-244). • M0237-D02 hIgG1 : 2517-068. • All measurements were performed at 25° C. in TCNB: 50 mM Tris/HCl, 10 mM CaCl2, 150mM NaCl 0.05% Brij 35, pH 7.5. • 96-well black plates from Perkin Elmer (6005270) • Spectramax M2e to measure fluorescence emission of the substrate upon hydrolysis (λexc=328 nm and λem=393 nm)
The enzyme (at a final concentration ranging from 1.5 to 12.3 nM), the substrate (9 μM final) and the M0237-D02 antibody were mixed, and the fluorescence was immediately recorded in order to follow the hydrolysis of the substrate. The observed inhibition rate (kobs) was obtained by analyzing the progress curves with a single exponential. The value for kon and koff were calculated from the plot of the kobs vs. the antibody concentration using the following equation: kobs=kon[I]+koff
kobs was measured at four antibody concentrations (table below): […]

[3] = tested on: collagen-induced arthritis (CIA) mice; test: Collagen-induced arthritis (CIA) mice; type: in vivo, mouse; conditions: CIA model, compared to untreated mice; FIG. 3
Excerpt: (§3) The purpose of the following experiments were to determine the effect of 539A-M0237-D02 on inflammation and specifically on inflammatory cell infiltration into the carrageenan-stimulated mouse air pouch and on the arthritic index in collagen-induced arthritis (CIA) mice.
The collagen-induced arthritis (CIA) was produced by the immunization of susceptible strains of mice with native type II collagen. The collagen was emulsified in Freund's complete adjuvant and injected subcutaneously. A booster injection of collagen in incomplete adjuvant was given IP 21 days after the initial immunization. The disease is due to an auto-immune response induced upon immunization with collagen.
The effect 539A-M0237-D02 on the arthritic index was compared to administration of methotrexate (MTX).

Mouse MMP-9 = molecular target: T4, Mouse MMP-9 (Mus musculus, UniProt P41245); test: Ki determination with fluorogenic peptide substrate; type: biochemical; conditions: fluorogenic peptide substrates
T4 construct: purchased R&D 909-MM
Protocol: (§4) This example characterized the interaction of the M0237-D02 hIgG1 with the human and mouse MMP-9. The Ki was measured and the inhibition mechanism was determined.
(§5) Materials: • Substrate: Mca -KPLGL-Dap(Dnp)-AR-NH2(SEQ ID NO: 1279) (M-2350) from BACHEM (521575). A 10mM stock solution was prepared in DMSO. • Enzymes: • Human MMP-9 catalytic domain (BIOMOL, SE-244). Enzyme concentration was measured by titration with TIMP-1 (2522-104) • Mouse MMP-9 (R&D, 909-MM), APMA-activated. • M0237-D02 hIgG1 : 2517-014. Dialysed against TCN. • TCNB: 50 mM Tris/HCl, 10 mM CaCl2, 150 mM NaCl, 0.05% Brij 35, pH 7.5. • 96-well black plates from Perkin Elmer (6005270) • Spectramax M2e to measure fluorescence emission of the substrate upon hydrolysis (temperature control set at 30° C.; λexc=328 nm and λem=393 nm)
(§6) The enzyme (final concentration=0.23 and 0.17 nM for the human and mouse MMP-9, respectively) was preincubated with various concentrations (0-50 nM) of M0237-D02 for 1 h at 30° C. The substrate was then added to a final concentration ranging from 5 to 40 μM and initial rates were recorded.
(§7) Each data point was measured in triplicate, and initial rates were averaged.
(§8) Averaged initial rates were plotted against the M0237-D02 concentration for each substrate concentration, and IC50's were calculated using the following equation: […]
(§9) The IC50 values were then plotted against the substrate concentration.

[4] = molecular target: T2, Human MMP-9 catalytic domain; test: as above; type: biochemical; conditions: fluorogenic peptide substrates
Protocol: as §4, §5, §6, §7, §8, §9

[5] = tested on: inflammatory cell infiltration into the carrageenan-stimulated mouse air pouch; test: Carrageenan-stimulated mouse air pouch model; type: in vivo; conditions: FIG. 2
Excerpt: as §3
For the carrageenan-stimulated mouse air pouch model, subcutaneous injection of air into the hind flank or back of mice produces an air pouch in a week, the interior surface of which contains both fibroblast-like and macrophage-like cells. Inflammatory stimulation of the pouch results in leukocyte recruitment to the pouch and release of mediators (cytokines) into the exudate. Preventing inflammatory cell infiltration into the air pouch may translate into preventing inflammation of the synovium in rheumatoid arthritis.
The effect of 539A-M0237-D02 on inflammatory cell infiltration was compared to inflammatory cell infiltration indomethacin and a control (PBS). In addition, inflammatory cell recruitment was compared to an unstimulated mouse.

[6] = tested on: gelatinolytic activity (tumoral MMP-2-9) in MCF-7 tumor sections; test: Film in situ zymography (FIZ); type: biochemical, human; conditions: 500 nM, 37° C. overnight
Protocol: (§10) PBS-control treated tumors were screened with M0237-D02 for gelatinase expression using the FIZ approach. The tumors tested were Colo205 and MCF-7. Briefly, frozen slides of tumpor sections were dried at room temperature and 200 μl of in situ Zymo buffer (TCNB)+20 μg/ml of gelatin quenched substrate from molecular probes was added. The slides were incubate at 37° c. overnight in the presence of M0237-D02 at 500 nM or GM6001 used as a positive control at 100 μM. The substrate was washed in MilliQ (3 times) and the mounted slides were treated with anti-Fade+Dapi mounting medium.

[7] = tested on: gelatinolytic activity (tumoral MMP-2-9) in Colo205 tumor sections; test: Film in situ zymography (FIZ); type: biochemical, human; conditions: 500 nM, 37° C. overnight
Protocol: as §10

[8] = Direct capture (amine coupling) of antibody on CM5 chip
[9] = Fc capture (anti-Fc antibody surface)
[10] = from plot of kobs vs. the antibody concentration

T1 sequence (P14780 20-707 limits assumed): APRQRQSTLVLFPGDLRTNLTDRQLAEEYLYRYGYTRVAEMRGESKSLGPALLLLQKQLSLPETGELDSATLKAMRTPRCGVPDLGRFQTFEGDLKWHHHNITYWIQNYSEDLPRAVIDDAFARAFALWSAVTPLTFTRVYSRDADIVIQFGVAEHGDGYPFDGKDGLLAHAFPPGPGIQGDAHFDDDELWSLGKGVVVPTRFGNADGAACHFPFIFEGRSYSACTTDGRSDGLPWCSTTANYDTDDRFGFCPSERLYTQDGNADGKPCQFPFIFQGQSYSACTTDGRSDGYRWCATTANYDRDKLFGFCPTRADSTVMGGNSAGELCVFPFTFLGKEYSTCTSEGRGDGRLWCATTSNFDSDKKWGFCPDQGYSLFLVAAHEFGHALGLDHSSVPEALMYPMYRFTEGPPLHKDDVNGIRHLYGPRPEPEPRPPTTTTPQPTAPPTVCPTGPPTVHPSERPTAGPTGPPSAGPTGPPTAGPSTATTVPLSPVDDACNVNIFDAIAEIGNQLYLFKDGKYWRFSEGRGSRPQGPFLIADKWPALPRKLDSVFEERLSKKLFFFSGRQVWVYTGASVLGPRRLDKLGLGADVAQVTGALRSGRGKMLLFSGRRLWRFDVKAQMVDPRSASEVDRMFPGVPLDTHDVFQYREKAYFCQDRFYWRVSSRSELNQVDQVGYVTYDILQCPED
T2 sequence (P14780 107-449 limits assumed): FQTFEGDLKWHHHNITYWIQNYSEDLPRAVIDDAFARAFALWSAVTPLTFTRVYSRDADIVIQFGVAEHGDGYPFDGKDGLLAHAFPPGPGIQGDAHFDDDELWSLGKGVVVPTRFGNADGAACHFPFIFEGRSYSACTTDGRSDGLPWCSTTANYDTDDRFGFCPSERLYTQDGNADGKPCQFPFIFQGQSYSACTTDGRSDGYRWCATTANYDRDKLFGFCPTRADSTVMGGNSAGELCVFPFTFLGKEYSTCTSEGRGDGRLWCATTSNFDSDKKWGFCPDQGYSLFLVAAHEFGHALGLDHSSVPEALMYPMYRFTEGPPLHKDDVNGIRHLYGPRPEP
h-MMP-9/h-TIMP-1 complex, sequence (P14780 107-449 limits assumed): as above
h-MMP-9/h-TIMP-1 complex, sequence (P01033 24-207 partner): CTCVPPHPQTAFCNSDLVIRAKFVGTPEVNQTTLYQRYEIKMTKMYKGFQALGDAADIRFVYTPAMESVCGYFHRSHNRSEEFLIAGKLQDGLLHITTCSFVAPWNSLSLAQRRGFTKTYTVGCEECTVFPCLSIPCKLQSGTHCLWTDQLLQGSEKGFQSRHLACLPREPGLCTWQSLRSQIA
T3 sequence (P01033 24-207): as the sequence (P01033 24-207 partner) above
T4 sequence (P41245 108-730): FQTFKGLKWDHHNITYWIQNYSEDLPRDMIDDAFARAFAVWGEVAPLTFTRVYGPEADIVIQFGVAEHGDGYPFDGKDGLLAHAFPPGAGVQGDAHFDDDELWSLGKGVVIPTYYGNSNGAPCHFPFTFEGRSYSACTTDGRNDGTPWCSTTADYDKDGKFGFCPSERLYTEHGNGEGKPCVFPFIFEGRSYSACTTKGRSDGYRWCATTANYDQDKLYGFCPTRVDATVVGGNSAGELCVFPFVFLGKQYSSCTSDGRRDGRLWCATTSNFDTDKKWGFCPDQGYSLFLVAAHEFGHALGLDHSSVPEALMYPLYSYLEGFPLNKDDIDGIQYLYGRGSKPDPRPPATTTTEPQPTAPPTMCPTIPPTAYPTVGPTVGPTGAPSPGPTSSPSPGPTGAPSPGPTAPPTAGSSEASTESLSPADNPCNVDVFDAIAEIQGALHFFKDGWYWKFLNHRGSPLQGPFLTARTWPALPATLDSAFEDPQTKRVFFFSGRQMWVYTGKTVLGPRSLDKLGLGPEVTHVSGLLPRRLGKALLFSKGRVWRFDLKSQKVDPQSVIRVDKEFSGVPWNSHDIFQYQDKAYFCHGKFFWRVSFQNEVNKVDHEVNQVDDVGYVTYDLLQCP

Binding of Pro-huMMP-9 (human pro-MMP-9): observed neither
Binding of Pro-huMMP-9 (human pro-MMP-9; listed as 539A-M0166F10): ~No
Binding of Cat-huMMP-9 [1, 8]: binds
Binding of Cat-huMMP-9 ([1]; Direct capture (amine coupling) of antibody on CM5 chip, listed as 539A-M0166F10): Yes
Binding of Cat-huMMP-9 [1, 9]: binds
Binding of Cat-huMMP-9 ([1]; Fc capture (anti-Fc antibody surface), listed as 539A-M0166F10): Yes
Binding of huTIMP-1 (human TIMP-1): No
Binding of huTIMP-1/cat-huMMP-9 (h-MMP-9/h-TIMP-1 complex; Direct capture): no binding was observed
Binding of huTIMP-1/cat-huMMP-9 (h-MMP-9/h-TIMP-1 complex; Direct capture, listed as 539A-M0166F10): No
B1: M0166-F10: inhibitory MMP-9 binding antibody (hMMP-9 antibody inhibitor) (antibody, V domains shown)
VL: QSELTQPPSASAAPGQRVTISCSGSSSNIGSNTVTWYQKLPGTAPKLLIYNNYERPSGVPARFSGSKSGTSASLAISGLQSEDEADYYCATWDDSLIANYVFGSGTKVTVLGQPKANP
VH: EVQLLESGGGLVQPGGSLRLSCAASGFTFSPYLMNWVRQAPGKGLEWVSSIYSSGGGTGYADSVKGRFTISRDNSKNTLYLQMNSLRAEDTAVYYCARIYHSSSGPFYGMDVWGQGTTVTVSSASTKGPSVFPLAPSSKS

koff [2, 10]: ~4 10^−4 s^−1
kon [2, 10]: ~7 10^4 M^−1 s^−1
Binding of Pro-huMMP-9 (human pro-MMP-9; listed as 539A-M0237D02): No
Binding of Pro-huMMP-9 (human pro-MMP-9; listed as M237-D02): observed neither
Binding of Cat-huMMP-9 [1, 8]: No
Binding of Cat-huMMP-9 ([1]; Fc capture (anti-Fc antibody surface), listed as 539A-M0237D02): Yes
Binding of huTIMP-1 (human TIMP-1): No
Binding of huTIMP-1/cat-huMMP-9 (h-MMP-9/h-TIMP-1 complex; Direct capture): No
Binding of huTIMP-1/cat-huMMP-9 (h-MMP-9/h-TIMP-1 complex; Fc capture, listed as 539A-M0237D02): No
inhibition model (Mouse MMP-9): non competitive inhibitor
inhibition model [4]: non competitive inhibitor
B2: M0237-D02: MMP-9/-2 dual reactive antibody inhibitor (parental); used as hIgG1 and Fab; VL/VH sequences in Example 7 (antibody, V domains shown)
VL: QDIQMTQSPATLSLSPGERATLSCRASQSISSFLAWYQQKPGQAPRLLIYDASYRATGIPARFSGSGSGTDFTLTISSLEPEDYAVYYCQQRGNWPITFGQGTRLEIKRTVAAPS
VH: EVQLLESGGGLVQPGGSLRLSCAASGFTFSQYPMWWVRQAPGKGLEWVSYIVPSGGRTYYADSVKGRFTISRDNSKNTLYLQMNSLRAEDTAVYYCAKDRAYGDYVGWNGFDYWGQGTLVTVSSASTKGPSVFPLAPSSKS
kobs ([2]; M0237-D02 concentration 14.4 nM): 0.0013 s⁻¹
kobs ([2]; M0237-D02 concentration 19.2 nM): 0.0019 s⁻¹
kobs ([2]; M0237-D02 concentration 28.8 nM): 0.0024 s⁻¹
kobs ([2]; M0237-D02 concentration 115.2 nM): 0.0086 s⁻¹
arthritic index [3]: decreased
Binding of Cat-huMMP-9 [1, 9]: could be observed only if this antibody was captured via an anti-Fc antibody
Binding of huTIMP-1/cat-huMMP-9 (h-MMP-9/h-TIMP-1 complex; Fc capture): no binding was observed; also recorded: cannot bind
lymphocyte infiltration [5]: significantly decreased
neutrophil infiltration [5]: significantly decreased
total white blood cell infiltration [5]: significantly decreased
inhibition of gelatinolytic activity [6]: complete inhibition
inhibition of gelatinolytic activity [7]: complete inhibition
